Test results from publication PMC7337490.

Target: survivin;borealin 10-109;INCENP 1-80 (CPI80) (human;human;human) (UniProt O15392+Q53HL2+Q9NQS7)
Assay: EMSA
Conditions: shift between 2 and 3 uM protein; 100 mM NaCl, 20 mM Tris-HCl pH 7.4, 1 mM DTT, 2 h on ice; MST 0.04 uM duplex, 0.1-200 uM protein; EMSA 0.15 pmol plasmid in 20 ul, 0.8% agarose

Sequence of survivin;borealin 10-109;INCENP 1-80 (CPI80) (human;human;human) (O15392 whole entry, chain 1 of 3): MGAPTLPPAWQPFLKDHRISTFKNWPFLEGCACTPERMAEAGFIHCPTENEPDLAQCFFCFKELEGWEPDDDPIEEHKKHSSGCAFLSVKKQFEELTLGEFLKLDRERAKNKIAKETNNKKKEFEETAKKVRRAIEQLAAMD
Sequence of survivin;borealin 10-109;INCENP 1-80 (CPI80) (human;human;human) (Q53HL2 10-109, chain 2 of 3): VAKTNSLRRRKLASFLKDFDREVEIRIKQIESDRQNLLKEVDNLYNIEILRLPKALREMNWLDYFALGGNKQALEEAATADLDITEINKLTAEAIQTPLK
Sequence of survivin;borealin 10-109;INCENP 1-80 (CPI80) (human;human;human) (Q9NQS7 1-80, chain 3 of 3): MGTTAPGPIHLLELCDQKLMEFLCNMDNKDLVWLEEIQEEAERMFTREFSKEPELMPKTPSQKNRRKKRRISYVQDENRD

BamHI-linearized pBluescript (2.9 kb) was tested, and the K half was 3000 nM.
